Assays:
Type in all cases: in vivo, Female Swiss Albino mice
[1] = system: Cyclophosphamide induced neutropenia; assay: Cyclophosphamide induced neutropenia, hematological changes (Example 9)
Procedure: • 1. To induce neutropenia in mice by administration of cyclophosphamide. • 2. To determine the effect of treatments of pure Picroside 1 and the degraded Picroside 1 with salt on total WBC count, neutrophils, monocyte, lymphocytes and platelet count. • 3. To compare the effect of pure Picroside 1 and the degraded Picroside 1 with salt standard 2 μg G-CSF.
Cyclophosphamide was procured from Sigma Aldrich and G-CSF was procured from marketed formulation of Lupin limited, Lupifil (300). Female Swiss Albino mice weighing between 25-27 g were procured from National Institute of Biosciences, Pune.
(§1) Female Swiss Albino mice were randomized into different groups based on body weight as follows: • Group 1—cyclophosphamide control (CP control), • Group 2—pure Picroside 1 treated, • Group 3—the degraded Picroside 1 with salt and • Group 4—GCSF (granulocyte colony stimulating factor) treated groups. • On day 0, blood was withdrawn from all animals for basal hematological parameters. The animals of all the groups were injected with 150 mg/kg of cyclophosphamide through intraperitoneal route (i.p.). On Day 3, blood was withdrawn from all animals for total and differential count (neutrophils, lymphocytes, and monocytes). The animals were dosed with one additional dose of 100 mg/kg cyclophosphamide on Day 4. From day 5, the animals were administered with respective treatments through oral route in water as vehicle while group 1 was administered with placebo tablets for 5 consecutive days. On day 10, blood was withdrawn from all animals for Total and differential count (neutrophils, lymphocytes, and monocytes), WBCs, Platelets and AST (aspartate aminotransferase) and ALT (alanine aminotransferase).

[2] = system: Cyclophosphamide induced hepatotoxicity; assay: Cyclophosphamide induced hepatotoxicity, AST/ALT (Example 9); settings: for ALT (alanine aminotransferase) / AST (aspartate aminotransferase): day 10, after 5 days treatment from day 5, GCSF 2 μg
Procedure: as §1

[3] = system: Cyclophosphamide induced neutropenia; assay: Cyclophosphamide induced neutropenia, hematological parameters (Example 10)
Procedure: (§2) • 1. To induce neutropenia by administration of cyclophosphamide. • 2.
(§3) Materials: Female Swiss Albino mice weighing between 25-27 g was procured from Global Bioresearch Solutions Pvt Ltd., Pune.
(§4) On day 0, blood was withdrawn from all animals for basal hematological parameters. All the groups of animals except placebo group were injected with 150 mg/kg of cyclophosphamide through intraperitoneal route (i.p.), while group 1 was injected with water for injection, i.p. On Day 3, blood was withdrawn from all animals for Total and differential count (neutrophils, lymphocytes, and monocytes). The animals of group 2 to 7 were dosed with one additional dose of 100 mg/kg cyclophosphamide on Day 4. […] The cyclophosphamide control group was injected with water for injection from day 5 to day 9. On day 10, blood was withdrawn from all animals for total and differential count (neutrophils, lymphocytes, and monocytes), platelets, liver parameters AST (aspartate aminotransferase), ALT (alanine aminotransferase), and renal parameters—serum creatinine, blood urea nitrogen and uric acid.
(§5) • Pure Picroside 1—1 tablet was dissolved in 0.1 ml of sterile water for injection and 0.1 ml was injected as subcutaneous injection. • The degraded Picroside 1 without salt (cinnamic acid of the present disclosure)—1 tablet was dissolved in 0.1 ml of sterile water for injection and 0.1 ml was injected as subcutaneous injection. • The Cinnamic acid low dose (0.6 mg/tablet) treated tablet was dissolved in 0.1 ml of sterile water for injection and 0.1 ml was injected as subcutaneous injection. • The Cinnamic acid high dose treated (6 mg/tablet) tablet was dissolved in 0.1 ml of sterile water for injection and 0.1 ml was injected as subcutaneous injection.

[4] = system: Cyclophosphamide induced hepatotoxicity and renal changes; assay: Hepatic and renal parameters in cyclophosphamide induced neutropenia (Example 10); settings: for BUN (blood urea nitrogen) / SGOT Serum glutamic oxaloacetic transaminase / SGPT (Serum glutamic pyruvic transaminase) / Serum Creatinine / Uric acid: day 10, G-CSF 2 μg s.c., others 1 tablet per animal per day for 5 days
Procedure: as §2, §3, §4, §5

[5] = Day 0, basal, before cyclophosphamide
[6] = Day 3, after cyclophosphamide 150 mg/kg i.p., before treatment
[7] = Day 10, after 5 days treatment from day 5, GCSF 2 μg
[8] = compared to cyclophosphamide control group, Example 9
[9] = Day 0, basal, G-CSF 2 μg, Picroside tablets groups
[10] = Day 3, after cyclophosphamide, before treatment, G-CSF 2 μg, Picroside tablets groups
[11] = Day 10, treated day 5 for 5 days, G-CSF 2 μg s.c., others 1 tablet per animal per day
[12] = vs CP control, day 10, cinnamic acid at both 0.6 mg/tablet low dose and 6 mg/tablet high dose
[13] = vs CP control, cinnamic acid at both 0.6 mg/tablet low dose and 6 mg/tablet high dose

With `O=C(/C=C/c1ccccc1)OC[C@H]1O[C@@H](O[C@@H]2OC=C[C@H]3[C@H](O)[C@@H]4O[C@]4(CO)[C@@H]23)[C@H](O)[C@@H](O)[C@@H]1O` [Pure Picroside 1, Picroside 1] the “% Lymphocytes” value [1, 5] was 40.32 ± 1.56%, the “% Monocytes” value [1, 5] was 7.32 ± 0.32^ % and the “% Neutrophils” value [1, 5] was 43 ± 0.68%. For the same molecule, the “Platelet Count” value [1, 5] was 741600 ± 3476 per cu · mm of blood, the “WBC Count” value [1, 5] was 7410 ± 414.90 per cu · mm of blood and the “% Lymphocytes” value [1, 6] was 80.00 ± 1.92%. The “% Monocytes” value [1, 6] was 1.50 ± 0.34^ %, the “% Neutrophils” value [1, 6] was 7 ± 0.92% and the “Platelet Count” value [1, 6] was 647900 ± 26900 per cu · mm of blood. For the same molecule, the “WBC Count” value [1, 6] was 1562 ± 145.90 per cu · mm of blood, the “% Lymphocytes” value [1, 7] was 72.00 ± 1.46 % and the “% Monocytes” value [1, 7] was 4.50 ± 0.34 %. For the same molecule, the “% Neutrophils” value [1, 7] was 12.66 ± 0.66 %, the “Platelet Count” value [1, 7] was 653300 ± 26550 per cu · mm of blood and the “WBC Count” value [1, 7] was 4380 ± 333.30 per cu · mm of blood. For the same molecule, the “Effect on % lymphocytes” value [1, 8] was “significant (p<0.01) reduction in % lymphocytes”, the “Effect on % monocytes” value [1, 8] was “significantly reversed” and the “Effect on platelet count” value [1, 8] was “improved the platelet count significantly (p<0.001)”. The “Effect on total WBC count” value [1, 8] was “significantly (p<0.001) reversed the cyclophosphamide induced decrease in WBC count”, the “Effect on % neutrophil” value ([1]; compared to cyclophosphamide/placebo control group, Example 9) was “significantly (p<0.01) alleviated the cyclophosphamide-induced neutropenia” and the “Effect on ALT” value [2, 8] was “significant reversal (p<0.001)”. The “Effect on AST” value [2, 8] was “significant (p<0.001) decrease in AST”, the “ALT (alanine aminotransferase)” value [2] was 37.32 ± 0.66 IU/L and the “AST (aspartate aminotransferase)” value [2] was 43.66 ± 2.68 IU/L. The “% Lymphocytes” value [3, 9] was 44.33%, the “% Monocytes” value [3, 9] was 6.00% and the “% Neutrophils” value [3, 9] was 41.00%. The “No of Platelets” value [3, 9] was 735700 per cu · mm of blood, the “Total WBC Count” value [3, 9] was 7301 per cu · mm of blood and the “% Lymphocytes” value [3, 10] was 84%. For the same molecule, the “% Monocytes” value [3, 10] was 1.50%, the “% Neutrophils” value [3, 10] was 6.50% and the “No of Platelets” value [3, 10] was 631700 per cu · mm of blood. The “Total WBC Count” value [3, 10] was 2365 per cu · mm of blood, the “% Lymphocytes” value [3, 11] was 58.67% and the “% Monocytes” value [3, 11] was 5.00%. For the same molecule, the “% Neutrophils” value [3, 11] was 28.33%, the “No of Platelets” value [3, 11] was 626800 per cu · mm of blood and the “Total WBC Count” value [3, 11] was 3674 per cu · mm of blood. The “Anti-neutropenic activity (words)” value ([3]; inference from table 8A) was “shows better anti-neutropenic activity”, the “BUN (blood urea nitrogen)” value [4] was 9.483 mmol/L and the “SGOT Serum glutamic oxaloacetic transaminase” value [4] was 25.67 IU/L. The “SGPT (Serum glutamic pyruvic transaminase)” value [4] was 28.5 IU/L, the Serum Creatinine [4] was 46.8 µM and the Uric acid [4] was 30.00 mg/L. For the same molecule, the “Hepatic and renal parameters in neutropenic animal model” value ([4]; inference from table 8B, as compared to GCSF) was “improved hepatic and renal parameters”.

B1: GCSF: glycoprotein that stimulates the bone marrow to produce granulocytes and stem cells; marketed formulation of Lupin limited (protein, UniProt P09919 31-207, looked up)
Granulocyte …: TPLGPASSLPQSFLLKCLEQVRKIQGDGAALQEKLVSECATYKLCHPEELVLLGHSLGIPWAPLSSCPSQALQLAGCLSQLHSGLFLYQGLLQALEGISPELGPTLDTLQLDVADFATTIWQQMEELGMAPALQPTQGAMPAFASAFQRRAGGVLVASHLQSFLEVSYRVLRHLAQP
modifications: filgrastim (Lupifil)
notes: glycoprotein that stimulates the bone marrow to produce granulocytes and stem cells; marketed formulation of Lupin limited
In the case of B1, the “% Lymphocytes” value [1, 5] is reported as 40.00 ± 3.22%, the “% Monocytes” value [1, 5] is reported as 7.32 ± 0.42% and the “% Neutrophils” value [1, 5] is reported as 42.16 ± 1.74%. For the same molecule, the “Platelet Count” value [1, 5] was 732400 ± 7528 per cu · mm of blood, the “WBC Count” value [1, 5] was 7438 ± 626.20 per cu · mm of blood and the “% Lymphocytes” value [1, 6] was 82.50 ± 1.40%. The “% Monocytes” value [1, 6] was 1.32 ± 0.22%, the “% Neutrophils” value [1, 6] was 7.16 ± 0.48% and the “Platelet Count” value [1, 6] was 637100 ± 38470 per cu · mm of blood. The “WBC Count” value [1, 6] was 1580 ± 235.00 per cu · mm of blood, the “% Lymphocytes” value [1, 7] was 59.32 ± 2.24 % and the “% Monocytes” value [1, 7] was 5.66 ± 0.48 %. The “% Neutrophils” value [1, 7] was 26.00 ± 1.66 %, the “Platelet Count” value [1, 7] was 690300 ± 15510 per cu · mm of blood and the “WBC Count” value [1, 7] was 4518 ± 406.00 per cu · mm of blood. For the same molecule, the “Effect on % lymphocytes” value [1, 8] was “reversed cyclophosphamide-induced lymphocyte recruitment significantly (p<0.001)”, the “Effect on platelet count” value [1, 8] was “significant increase in platelet count” and the “Effect on total WBC count” value [1, 8] was “significantly (p<0.001) reversed the cyclophosphamide induced decrease in WBC count”. The “Effect on AST” value [2, 8] was “significant (p<0.001) reduction in AST”, the “ALT (alanine aminotransferase)” value [2] was 36.16 ± 0.70 IU/L and the “AST (aspartate aminotransferase)” value [2] was 45.16 ± 2.72 IU/L. The “% Lymphocytes” value [3, 9] was 45.5%, the “% Monocytes” value [3, 9] was 6.00% and the “% Neutrophils” value [3, 9] was 41.33%. For the same molecule, the “No of Platelets” value [3, 9] was 752200 per cu · mm of blood, the “Total WBC Count” value [3, 9] was 7255 per cu · mm of blood and the “% Lymphocytes” value [3, 10] was 83.5%. For the same molecule, the “% Monocytes” value [3, 10] was 1.833%, the “% Neutrophils” value [3, 10] was 6.667% and the “No of Platelets” value [3, 10] was 645800 per cu · mm of blood. For the same molecule, the “Total WBC Count” value [3, 10] was 2617 per cu · mm of blood, the “% Lymphocytes” value [3, 11] was 50.17% and the “% Monocytes” value [3, 11] was 5.167%. For the same molecule, the “% Neutrophils” value [3, 11] was 36.67%, the “No of Platelets” value [3, 11] was 674900 per cu · mm of blood and the “Total WBC Count” value [3, 11] was 6030 per cu · mm of blood. For the same molecule, the “Effect on % lymphocytes” value [3, 12] was “significant (p<0.001) decrease in % lymphocytes”, the “Effect on % monocytes” value [3, 12] was “significantly (p<0.001) reversed” and the “Effect on platelet count” value [3, 12] was “significant (p<0.05) increase in platelet count”. The “Effect on total WBC count” value [3, 12] was “significantly (p<0.001) reversed the cyclophosphamide induced decrease in WBC count”, the “BUN (blood urea nitrogen)” value [4] was 9.633 mmol/L and the “SGOT Serum glutamic oxaloacetic transaminase” value [4] was 32.17 IU/L. The “SGPT (Serum glutamic pyruvic transaminase)” value [4] was 34.33 IU/L, the Serum Creatinine [4] was 44.5 µM and the Uric acid [4] was 26.33 mg/L. The “Effect on BUN level” value [4, 13] was “significant (p<0.001) decrease in BUN level”, the “Effect on SGOT level” value [4, 13] was “significant (p<0.001) reduction in SGOT” and the “Effect on serum creatinine level” value [4, 13] was “significant (p<0.001) reduction in creatinine level”. For the same molecule, the “Effect on uric acid level” value [4, 13] was “significant decrease in uric acid levels (p<0.001)”.

— patent publication US20240350441A1, “PHARMACEUTICAL FORMULATION AND A PROCESS FOR ITS PREPARATION” (SAVA HEALTHCARE LTD, priority 2021, published 2024)
